{"source": "patent US11718646B2", "about": "“Bovine adrenal medulla peptide 8-22 compounds and methods of use thereof for treating pain” (Tufts Medical Center, priority 2015, dated 2023)", "key": {"[1]": {"biological_target": "T1, MrgprX1 F273L variant (Homo sapiens, UniProt Q96LB2, F273L)", "T1 construct": "expressed in transfected cells; host or cells: HEK293", "T1 sequence (Q96LB2 whole entry F273L)": "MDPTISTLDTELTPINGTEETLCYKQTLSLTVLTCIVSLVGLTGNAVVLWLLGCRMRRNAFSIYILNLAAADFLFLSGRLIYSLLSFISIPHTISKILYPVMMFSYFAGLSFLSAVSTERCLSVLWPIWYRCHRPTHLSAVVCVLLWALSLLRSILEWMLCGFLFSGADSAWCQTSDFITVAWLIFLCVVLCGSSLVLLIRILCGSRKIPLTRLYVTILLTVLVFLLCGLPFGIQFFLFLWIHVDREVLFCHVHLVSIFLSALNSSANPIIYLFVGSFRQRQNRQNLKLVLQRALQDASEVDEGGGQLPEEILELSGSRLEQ", "test": "SRE-luciferase reporter gene assay in transfected HEK293 cells, F273L variant", "format": "cell-based", "conditions": "significant only with tethered γ2-MSH", "method": "(§1) A luciferase reporter-based assay was utilized as an index of receptor-mediated signaling (as in Doyle et al., 2013). Human kidney cells (HEK293), grown in Dulbecco's modified Eagle's medium (DMEM) containing 10% FBS, 100 U/ml penicillin, and 100 μg/ml streptomycin were seeded in 96-well plates and grown to 80% confluence. […]\n(§2) Twenty-four hours following transfection, cells were stimulated with soluble ligand for 4 hours (if applicable). After addition of SteadyLite reagent (PerkinElmer, Chicago, Ill.), luciferase activity of the lysate was measured using a TopCount NTX plate reader. Subsequently, 2-nitrophenyl β-D-galactopyranoside (ONPG) was added as a colorimetric substrate to enable quantification of β-galactosidase levels. After incubation with ONPG for 30 minutes, absorbance at 420 nm was measured using a SpectraMax microplate reader (Molecular Devices). […] Data were graphed and statistically analyzed using Graphpad Prism software.\n(§3) GraphPad Prism software version 6.0 (GraphPad Software Inc., La Jolla, Calif.) was used for sigmoidal curve fitting of ligand concentration—response curves, linear regression, and statistical analysis. EC50 and pEC50 values were calculated for each independent experiment as an index of ligand potency. […]\n(§4) The activity of tethered and lipidated BAMS-22 at each of the seven MrgprX1 variants was assessed (FIGS. 4A-4B). […]"}, "[2]": {"biological_target": "T2, MrgprX1 R55L variant (Homo sapiens, UniProt Q96LB2, R55L)", "T2 construct": "expressed in transfected cells; host or cells: HEK293", "T2 sequence (Q96LB2 whole entry R55L)": "as the sequence (Q96LB2 whole entry F273L) above, with R55L, L273F counted along it", "test": "SRE-luciferase reporter gene assay in transfected HEK293 cells, R55L variant", "format": "cell-based", "conditions": "significant only with tethered γ2-MSH", "method": "as §1, §2, §3, §4"}, "[3]": {"biological_target": "T3, MrgprX1 R131S variant (Homo sapiens, UniProt Q96LB2, R131S)", "T3 construct": "expressed in transfected cells; host or cells: HEK293", "T3 sequence (Q96LB2 whole entry R131S)": "as the sequence (Q96LB2 whole entry F273L) above, with R131S, L273F counted along it", "test": "SRE-luciferase reporter gene assay in transfected HEK293 cells, R131S variant", "format": "cell-based", "method": "as §1, §2, §3\nSignaling of MrgprX1 following stimulation with the endogenous peptide ligand BAM8-22 was measured using a luciferase reporter assay as described herein. […]"}, "[4]": {"biological_target": "T4, MrgprX1 H133R variant (Homo sapiens, UniProt Q96LB2, H133R)", "T4 construct": "expressed in transfected cells; host or cells: HEK293", "T4 sequence (Q96LB2 whole entry H133R)": "as the sequence (Q96LB2 whole entry F273L) above, with H133R, L273F counted along it", "test": "SRE-luciferase reporter gene assay in transfected HEK293 cells, H133R variant", "format": "cell-based", "method": "as §1, §2, §3, §4"}, "[5]": {"biological_target": "T5, wild type MrgprX1 (Homo sapiens, UniProt Q96LB2)", "T5 construct": "expressed in transfected cells; host or cells: HEK293", "T5 sequence (Q96LB2 whole entry)": "as the sequence (Q96LB2 whole entry F273L) above, with L273F counted along it", "test": "SRE-luciferase reporter gene assay in transfected HEK293 cells, wild type receptor", "format": "cell-based", "method": "A luciferase reporter-based assay was utilized as an index of receptor-mediated signaling (as in Doyle et al., 2013). Human kidney cells (HEK293), grown in Dulbecco's modified Eagle's medium (DMEM) containing 10% FBS, 100 U/ml penicillin, and 100 μg/ml streptomycin were seeded in 96-well plates and grown to 80% confluence. Using polyethylenimine (PEI, 2.0 μg/mL in serum-free DMEM), cells were transiently transfected with cDNAs encoding (a) wild type or variant MrgprX1 (3 ng/well); (b) an SRE-luciferase PEST construct (SRE5×-Luc-PEST), which includes five SRE repeats, a luciferase reporter gene, and the protein degradation sequence hPEST (Promega, catalog #E1340) (25 ng/well); and (c) a CMV-β-galactosidase construct as a control for variability in transfection efficiency (10 ng/well). In experiments that included transfection of an MTL-encoding construct, the corresponding cDNA was added to the transfection mix, at 4 ng/well or as indicated.\nTwenty-four hours following transfection, cells were stimulated with soluble ligand for 4 hours (if applicable). After addition of SteadyLite reagent (PerkinElmer, Chicago, Ill.), luciferase activity of the lysate was measured using a TopCount NTX plate reader. Subsequently, 2-nitrophenyl β-D-galactopyranoside (ONPG) was added as a colorimetric substrate to enable quantification of β-galactosidase levels. After incubation with ONPG for 30 minutes, absorbance at 420 nm was measured using a SpectraMax microplate reader (Molecular Devices). Luciferase activity was normalized using the β-galactosidase activity data. Three independent experiments were performed, each with three technical replicates. Data were graphed and statistically analyzed using Graphpad Prism software.\nGraphPad Prism software version 6.0 (GraphPad Software Inc., La Jolla, Calif.) was used for sigmoidal curve fitting of ligand concentration—response curves, linear regression, and statistical analysis. EC50 and pEC50 values were calculated for each independent experiment as an index of ligand potency. Reported values represent the mean of three independent experiments. Statistical comparisons were made by one-way analysis of variance with Dunnett's multiple comparisons test.\nAs additional tools for structure-function studies, MTLs incorporating one of two endogenous peptide ligands for MrgprX1, BAMS-22 and γ2-MSH, were generated. The activities of MTL constructs in both orientations (type I, with an extracellular N terminus of the ligand; type II, with an extracellular C terminus) were assessed using a luciferase-based reporter assay as described herein. […] Luciferase activity was quantified and normalized relative to β-galactosidase expression. […]"}, "[6]": {"system": "spinal nerve ligation neuropathic pain", "conditions": "intrathecal; rats; cited from earlier work"}}, "note": "No end group written: not given here."}
{"substance": "tethered BAM8-22: cDNA-encoded type I membrane tethered ligand: BAM8-22 fused to a transmembrane domain via a flexible linker, free extracellular N terminus (VGRPEWWMDYQKRYG; also: fused at C-terminus via flexible linker to a transmembrane domain (type I tethered ligand))", "values": [{"measurement": "ligand-mediated signaling compared to wild type receptor", "setting": "[1]", "value": "moderate decrease in signaling"}, {"measurement": "ligand-mediated signaling compared to wild type receptor", "setting": "[2]", "value": "moderate decrease in signaling"}, {"measurement": "ligand-mediated signaling compared to wild type receptor", "setting": "[3]", "value": "negligible signaling levels"}, {"measurement": "ligand-mediated signaling compared to wild type receptor", "setting": "[4]", "value": "not observed"}, {"measurement": "signaling at saturating concentration, of maximum lipidated BAM8-22 signaling", "setting": "[5]; WT receptor, relative to lipidated BAM8-22 at 10^−7 M, mean±SEM, data not shown", "value": "38.4±5.4", "unit": "%"}, {"measurement": "MTL activation of the receptor", "setting": "[5]; co-expressed with MrgprX1 in HEK293, increasing amounts of MTL cDNA, FIG. 3A, 3B", "value": "Active"}]}
{"substance": "M15A-Y17W: double substituted BAM8-22 MTL analog, M15A and Y17W (VGRPEWWADWQKRYG; left off: small tags and cut ends; large carriers)", "values": [{"measurement": "tethered ligand induced receptor activity of substituted BAM8-22 MTL", "setting": "[5]; MTL construct in HEK293 cells", "value": "full activity"}]}
{"substance": "bovine adrenal medulla peptide 8-22 (VGRPEWWMDYQKRYG) [BAM8-22, reference compound]", "values": [{"measurement": "time after administration at which the effect returns to baseline", "setting": "[6]", "value": 90, "unit": "min"}, {"measurement": "ligand-mediated signaling compared to wild type receptor", "setting": "[3]", "value": "lower levels of BAMS-22 mediated activity"}, {"measurement": "receptor stimulation at the highest tested concentration", "setting": "[5]; 10 μM, accurate EC50 values could not be calculated", "value": "does not fully stimulate the receptors"}]}
